Reference: PMC3982999

Target: GST-tetra-ubiquitin (4×UB) (UniProt P0CG48)
Assay: LUMIER

B1: Renilla luciferase fused to the full-length WT spartin (natural protein)
chain: MEQEPQNGEPAEIKIIREAYKKAFLFVNKGLNTDELGQKEEAKNYYKQGIGHLLRGISISSKESEHTGPGWESARQMQQKMKETLQNVRTRLEILEKGLATSLQNDLQEVPKLYPEFPPKDMCEKLPEPQSFSSAPQHAEVNGNTSTPSAGAVAAPASLSLPSQSCPAEAPPAYTPQAAEGHYTVSYGTDSGEFSSVGEEFYRNHSQPPPLETLGLDADELILIPNGVQIFFVNPAGEVSAPSYPGYLRIVRFLDNSLDTVLNRPPGFLQVCDWLYPLVPDRSPVLKCTAGAYMFPDTMLQAAGCFVGVVLSSELPEDDRELFEDLLRQMSDLRLQANWNRAEEENEFQIPGRTRPSSDQLKEASGTDVKQLDQGNKDVRHKGKRGKRAKDTSSEEVNLSHIVPCEPVPEEKPKELPEWSEKVAHNILSGASWVSWGLVKGAEITGKAIQKGASKLRERIQPEEKPVEVSPAVTKGLYIAKQATGGAAKVSQFLVDGVCTVANCVGKELAPHVKKHGSKLVPESLKKDKDGKSPLDGAMVVAASSVQGFSTVWQGLECAAKCIVNNVSAETVQTVRYKYGYNAGEATHHAVDSAVNVGVTAYNINNIGIKAMVKKTATQTGHTLLEDYQIVDNSQRENQEGAANVNVRGEKDEQTKEVKEAKKKDK
fold weaker binding than to 2×UB: 4 fold
